# Measurements from the RNAGym collection of RNA variant scans (doi:10.1073/pnas.2313332121).
# Variants at the floor of the assay were thinned out.
# B1: TPR 5TU (parent)
# chain: GGAUCUUCUCGAUCUAACAAAAAAGACAAAUCUGCCACAAAGCUUGAGAGCAUCUUCGGAUGCAGAGGCGGCAGCCUUCGGUGGCGCGAUAGCGCCAACGUUCUCAACUAUGACACGCAAAACGCGUGCUCCGUUGAAUGGAGUUUAUCAUG
# Variants of: B1
# Assay: polymerase ribozyme fitness, log enrichment relative to wild type (log ratio); higher = more active; in vitro selection for triplet polymerase activity
# How it was run: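 Mutant libraries of both subunits of a heterodimeric triplet polymerase ribozyme were PCR-built, transcribed, and selected once in triplicate, with frozen incubation at −7 °C and capture of gel-excised extended constructs on streptavidin beads before RT-PCR. Illumina sequencing of input and output libraries was filtered to genotypes with ≥10 input reads and ≥1 read per output. Fitness is the logarithm of genotype enrichment over wild-type enrichment, using inverse-variance-weighted replicate averages. The logarithm is base 2.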
row,Variant,polymerase ribozyme fitness (log ratio)
1,A21U G50A C63G A89G C95U C116U,-1.96
2,A21U U135A,-1.24
3,A21C G88A U104G A107U,≤ -4.2
4,A21U C57A C76U C116A,0.702
5,A21U C96U A113U,-2.6
6,A21U A29U C85U G141C,≤ -4.2
7,A21U C72U A122U,-0.472
8,A21U G59C G126U,0.721
9,A21U G68C C69G C116U,≤ -4.2
10,A21U A52G C76A G81C C87G C114U A121C U146A,≤ -4.2
11,A21U G50U,0.281
12,A21U G50C,-3.57
13,A21C G42A C54A C96G U102G,≤ -4.2
14,A21G A24G A47G G94C U102G C118U A121U,≤ -4.2
15,A21G A60G U78C A89U G92A G124U A137G G143U,≤ -4.2
16,A21U C57A A107C A122G C123U U135C U145A,≤ -4.2
17,A22C A29U U33C A47C U53G C95U C105A C118U,≤ -4.2
18,A21G A60G C63A C93G,-3.23
19,A21C U55A C96U,-0.915
20,A21U C27U C35A C57A G59C G74C G86U A89G U101G,≤ -4.2
21,A21U U104C,0.212

row,Variant,polymerase ribozyme fitness (log ratio)
1,A21G A24U C93G,-4.02
2,A21G C36A C57U A64G G94U G126C A138G,≤ -4.2
3,A21G U33G A52C U61G A64G U78G C95A A106G A142G,≤ -4.2
4,A21U G34A C69A C132G,≤ -4.2
5,A21U C69U C87U C96A,-1.14
6,A21U A119U G124U,-0.526
7,A21U A39C C57U A97G,-2.62
8,A21U C27A U44G C87A A137U,≤ -4.2
9,A21U C72U U77G U82G G100C U135G,≤ -4.2
10,A21G A41U C85A C116U,-1.58
11,A21U C96G,-0.697
12,A21U C96A,-0.443
13,A21C U55A,-0.0725
14,A21C U53A A91U C95G U134A U139C G152U,≤ -4.2
15,A21C G50C A60C A64U A66G G83A,≤ -4.2
16,A21U U56A G81U C85G A107U G141U U144G,≤ -4.2
17,A21G U56C C93U,-0.835
18,A21U C54U U146A,-0.081
19,A21G C27U A52C C93G A110U G152U,≤ -4.2
20,A21U C93G,-2.5
21,A21U A22U G42A G70C C93U G140C G152U,≤ -4.2

row,Variant,polymerase ribozyme fitness (log ratio)
1,A21G A30U A60C U77G C85A G94U G117U A150G,≤ -4.2
2,A21C G34U U61A C87U U134G U135A G141C,≤ -4.2
3,A21C G50A C57A C93A U135G,≤ -4.2
4,A21U C36A A64C G86C,≤ -4.2
5,A21U A24C C79U G80C C85U C93U,≤ -4.2
6,A21U C105G A113G C116U,-4.07
7,A21G C27A,-3.89
8,A21U C43A U78G G84U C93U C103G A115G,≤ -4.2
9,A21U A26G U33A A142C G143U U146G C149G,≤ -4.2
10,A21U C95A U146G,-0.389
11,A21U G80U G94A A147U,-0.607
12,A21U G34U C51U G86A A89U U145G,≤ -4.2
13,A21U C38A,0.268
14,A21U G34A G141A C149G,≤ -4.2
15,A21G A40U U56A C132A,-3.09
16,A21U C36G C51U U55C G92U U148A,≤ -4.2
17,A21U U45G U55A A91U C125U C131G,≤ -4.2
18,A21G A41U A64U C85G A98U,≤ -4.2
19,A21C C57G G81A A115C,-1.84
20,A21C U55G G83U,-0.166
21,A21G C114U,-1.69

row,Variant,polymerase ribozyme fitness (log ratio)
1,A21U C54A C96U,-2.01
2,A22C A37C,-0.165
3,A21U C38G C54U G92A G117U A121G,≤ -4.2
4,A21C G25C C76G A137C U145G,≤ -4.2
5,A22C A66C C103G G126C,≤ -4.2
6,A21G C57A,1.14
7,A22C A28U C105U C123U,≤ -4.2
8,A22C A24G A52G G68U,≤ -4.2
9,A21G G50C C93U C118U A138U U145A,≤ -4.2
10,A21U A30G C57U A91U U104A G126A,≤ -4.2
11,A21G A41G C93A C132A,-3.75
12,A21G A39U G83A U90G G92C C108G,≤ -4.2
13,A21G G46U,0.452
14,A21U C85U C131U U145G U151A,≤ -4.2
15,A21C G58C U61G U146G,-3.25
16,A21U C79G,-3.91
17,A21C C27A A40U G46A C57U C87G G126A,≤ -4.2
18,A21U G80C C85A U127A,≤ -4.2
19,A21G U31G C38U A66G C93A G124U U144A,≤ -4.2
20,A21C U53A C85A,-2.67
